Experimental data taken from the RNAGym collection of RNA variant scans (doi:10.7554/elife.80360).

B1: HDV Ribozyme (parent)
chain: GGCCGGCAUGGUCCCAGCCUCCUCGCUGGCGCCGGCUGGGCAACAUUCCGAGGGGACCGUCCCCUCGGUAAUGGCGAAUGGGACCCA

Variants of: B1
Experiment: self-cleavage, relative activity (ratio to wild type); higher = more cleavage; co-transcriptional

Row | Variant | self-cleavage
1 | GGCCGGUAUGGUCCCAGCCUCCUCGCUGGCGCCGGCUGGGCAACAUUCCGAGGGGACCGUCCCCUCGGUAAUGGCGAAUGGGACUCA [C7U C85U] | 0.886
2 | GGCCGGCAUGGUCCCAGCCUCCUCGCUGGCGCCGGCUGGGCGACAUUCCGAGGGGAUCGUCCCCUCGGUAAUGGCGAAUGGGACCCA [A42G C57U] | 0.527
3 | GGCCGGCAUGGUCCCAUCCUCCUCGCUGGCGCCUGCUGGGCAACAUUCCGAGGGGACCGUCCCCUCGGUAAUGGCGAAUGGGACCCA [G17U G34U] | 0.0554
4 | GGCCGGCAUGGUCCCAGCCUCCUCGCUGGCGCCAGCUGGGCAACCUUCCGAGGGGACCGUCCCCUCGGUAAUGGCGAAUGGGACCCA [G34A A45C] | 0.299
5 | GGCCGGCAUGGUCCCAGCCUCCUCGCUGGCGCCGGCUGGGCAACAUUUCGAGGGGACCGUCCACUCGGUAAUGGCGAAUGGGACCCA [C48U C63A] | 0.791
6 | GGCCGGCAUGGUCGCAGCCUCCUCGCUGGCGCCGGCUGGGCAACAUUCCAAGGGGACCGUCCCCUCGGUAAUGGCGAAUGGGACCCA [C14G G50A] | 1.15
7 | GGCCGGCAUGGUCCCAGCCUCCUCGCUGGCGCCGGCUGGGCAACAUGCCGAGGGGACCGUCCCCUCGGUAAUGGCGAAUGAGACCCA [U47G G81A] | 0.237
8 | GGCCGGCAUGGACCCAGCCUCCUCGCUGGCGCCGGCUGGGCAACAUUCCGAGGGGACCGUCCCCUCGGAAAUGGCGAAUGGGACCCA [U12A U69A] | 0.346
9 | GGCCGGCAUGGUCCCAGCCUCCUCGCUGGCGCCGGCCGGGCAACAUUCCGAGGGGACCGUCCCCUCGGUAAUGGCGAAUGUGACCCA [U37C G81U] | 0.211
10 | GGCCGGCUUGGUCCCAGCCUCGUCGCUGGCGCCGGCUGGGCAACAUUCCGAGGGGACCGUCCCCUCGGUAAUGGCGAAUGGGACCCA [A8U C22G] | 0.19
11 | GGCCGGCAUGGUCCCAGCCUCCUCGCUGGCGGCGGCUGGGCAACAUUCCGAGGGGACCGUCCCCUCGAUAAUGGCGAAUGGGACCCA [C32G G68A] | 0.185
12 | GGCCGGAAUGGUCCCAGCCUCCUCGCUGGCGCCGGUUGGGCAACAUUCCGAGGGGACCGUCCCCUCGGUAAUGGCGAAUGGGACCCA [C7A C36U] | 0.203
13 | GGCAGGCAUGGUCCCAGCCUCCUCGCUGGCGCCGGCUGGGCAACAUUCCGAGGCGACCGUCCCCUCGGUAAUGGCGAAUGGGACCCA [C4A G54C] | 0.284
14 | GGCCGGCAUGGUCCCAGCCUCCUCGCUGGCGCCGGCUGGGCAACAUUCCGAGGGGACCGUCCCCUCGGUAAUGGCGAAUGGGUCCCC [A83U A87C] | 0.751
15 | GGCCGGCAUGGUCCCAGCCUCCUCGCUGGCGCCGGCUGGGGAACAUUCCGAGUGGACCGUCCCCUCGGUAAUGGCGAAUGGGACCCA [C41G G53U] | 0.53
16 | GGCCGGCAUGGUCCCAGCCUCCUCGCUGGCGCCGGCUGCGCAACAUUGCGAGGGGACCGUCCCCUCGGUAAUGGCGAAUGGGACCCA [G39C C48G] | 0.262

Row | Variant | self-cleavage
17 | GGCCGGCAUGGUCCCAGCCUCCUCGCUGGCGCCGGAUGGGCAACAUUCCGAGGGGACCGUCCCCUCGGUAAUGGCGAAGGGGACCCA [C36A U79G] | 0.175
18 | GGCCGGCAUGGUCCCAGCCUCCUCGCUGGCGCCGGCUGGGCAACAUUCCGAGGAGACCGUCCCUUCGGUAAUGGCGAAUGGGACCCA [G54A C64U] | 0.696
19 | GGCCGGCAUGGUCCCAGCCUCCUCGCUGGCGCCGGCUGGGCAACACUCGGAGGGGACCGUCCCCUCGGUAAUGGCGAAUGGGACCCA [U46C C49G] | 0.554
20 | GGCCGGCAUGGUCCCAGCCUCCUCGCUGGCGCCGGCGGGGCAACAUUCCGAGGGGACCGUCCCCUGGGUAAUGGCGAAUGGGACCCA [U37G C66G] | 0.135
21 | GGCCGGCAUGGUCCCAGCCUCCUCGCUGACGCCGGCUGGGCAACAUUCCGAGGGGAUCGUCCCCUCGGUAAUGGCGAAUGGGACCCA [G29A C57U] | 0.234
22 | GGUCGGCAUGGUCCCAGCCUCCUCGCUGGCGCCGGCUCGGCAACAUUCCGAGGGGACCGUCCCCUCGGUAAUGGCGAAUGGGACCCA [C3U G38C] | 0.122
23 | GGCCGGCAUGGUCCCAGCCUCCUCGAUGGCGACGGCUGGGCAACAUUCCGAGGGGACCGUCCCCUCGGUAAUGGCGAAUGGGACCCA [C26A C32A] | 0.216
24 | GGCCGGCAUGGUCCCAGCCUCCUCGCUGGCGCCAGCUGGGCAACAUUCCGAGGGGACCGUCCCCUCCGUAAUGGCGAAUGGGACCCA [G34A G67C] | 0.0707
25 | GGCCGGCAUGGUCCCAGCCUCCUCGCUGGCGCCGGCUGGGCAACAUUCCGAGGGGACCGUCCCCUUGGUAAUGGCUAAUGGGACCCA [C66U G76U] | 0.936
26 | GGCCGGCAUGGUCCCAGCCCCCUCGCUGGCGCCGACUGGGCAACAUUCCGAGGGGACCGUCCCCUCGGUAAUGGCGAAUGGGACCCA [U20C G35A] | 0.101
27 | GGCCGGCAUGGUCCCAGCCUCCUCGCUGGCGCCGGCUGGGCAUCAGUCCGAGGGGACCGUCCCCUCGGUAAUGGCGAAUGGGACCCA [A43U U46G] | 0.185
28 | GGCCGGCAUGGUCCCAGCCUCCUCGCUGGCGCCGGCUGGGCAACAUCCGGAGGGGACCGUCCCCUCGGUAAUGGCGAAUGGGACCCA [U47C C49G] | 0.978
29 | GGCCGGCAUGGUCCCAGCCUCCUCGCUGGCACCGGCUGGGCAACAUUCCGAGGGGACCGUCCCCUCGGUAUUGGCGAAUGGGACCCA [G31A A71U] | 0.447
30 | UGCCGGCAUGGUCCCAGCCUCCUCGCUGGCGCCGGUUGGGCAACAUUCCGAGGGGACCGUCCCCUCGGUAAUGGCGAAUGGGACCCA [G1U C36U] | 0.318
31 | GGCCGGCAUGGUCCCAGCCUCCUCGCUGGCGCCGGCUGGGCAACAUUCCAAGGGGACCAUCCCCUCGGUAAUGGCGAAUGGGACCCA [G50A G59A] | 1.03
32 | GGCCGGCAUGGUCCCAGCCUCCUCGCUGGCGACGGCUGGGCAACAUUCCGAGUGGACCGUCCCCUCGGUAAUGGCGAAUGGGACCCA [C32A G53U] | 0.214
